From US20120213844A1 (ALZA, published 2012)
Positions of bridges follow the written chain, without caps; N, C: chain ends. No end group written: not given here.

B1: phage clone displaying SEQ ID NO: 43 (S20 hit) (peptide)
chain: GGGPTCDSATRRVLTICADGGGSGGSGG
notes: pIX phagemid display, library S20; not shown: M13 phage coat protein pIX (MSVL...)
B2: phage clone displaying SEQ ID NO: 46 (S20 hit) (peptide)
chain: GGGYICTPSDIDSWYICYLGGGSGGSGG
notes: as for B1
B3: phage clone displaying SEQ ID NO: 47 (S20 hit) (peptide)
chain: GGGSVCVGTAFPGWMVCGPGGGSGGSGG
notes: as for B1
B4: phage clone P176 (SEQ ID NO: 48) (peptide)
chain: GGGKTCVSTTFDLWFVCFAGGGSGGSGG
notes: pIX phagemid display, library S20; also called PP176; not shown: M13 phage coat protein pIX (MSVL...)
B5: phage clone displaying SEQ ID NO: 44 (S20 hit) (peptide)
chain: GGGWMCFLEGYGASLMCQCGGGSGGSGG
notes: as for B1
B6: phage clone displaying SEQ ID NO: 45 (S20 hit) (peptide)
chain: GGGDSCCSFLTDGTVVCSLGGGSGGSGG
notes: as for B1
B7: phage clone displaying SEQ ID NO: 49 (S20 hit) (peptide)
chain: GGGLLCATTSFRDWFVCFTGGGSGGSGG
notes: as for B1
B8: P190-MMB construct 4316 (Fc fusion)
chain: GGDPCTWEVWGRECLQGGGGSGGGGSGGGGSGGGGSCPPCPAPEAAGGPSVFLFPPKPKDTLMISRTPEVTCVVVDVSQEDPEVQFNWYVDGVEVHNAKTKPREEQFNSTYRVVSVLTVLHQDWLNGKEYKCKVSNKGLPSSIEKTISKAKGQPREPQVYTLPPSQEEMTKNQVSLTCLVKGFYPSDIAVEWESNGQPENNYKTTPPVLDSDGSFFLYSRLTVDKSRWQEGNVFSCSVMHEALHNHYTQKSLSLSLGK
notes: Human IgG4 hinge-CH2-CH3 with two Leu to Ala
B9: phage clone displaying SEQ ID NO: 38 (S19 hit) (peptide)
chain: GGGYDCMIRADGSLICWCGGGSGGSGG
notes: pIX phagemid display, library S19; not shown: M13 phage coat protein pIX (MSVL...)
B10: phage clone P180 (SEQ ID NO: 37) (peptide)
chain: GGGMICYLVDSGNIICYKGGGSGGSGG
notes: pIX phagemid display, library S19; also called PP180; not shown: M13 phage coat protein pIX (MSVL...)
B11: phage clone displaying SEQ ID NO: 41 (S19 hit) (peptide)
chain: GGGCDCREAVSASLVCRYGGGSGGSGG
notes: as for B9
B12: phage clone displaying SEQ ID NO: 40 (S19 hit) (peptide)
chain: GGGAFCRLDFNQWLTCLVGGGSGGSGG
notes: as for B9
B13: phage clone P179 (SEQ ID NO: 39) (peptide)
chain: GGGGPCVLIRDYYLLCLEGGGSGGSGG
notes: pIX phagemid display, library S19; also called PP179; not shown: M13 phage coat protein pIX (MSVL...)
B14: phage clone P174 (SEQ ID NO: 51) (peptide)
chain: GGGSGCLDALWQCVYGGGSGGSGG
notes: pIX phagemid display, library S16; also called PP174; not shown: M13 phage coat protein pIX (MSVL...)
B15: phage clone P178 (SEQ ID NO: 53) (peptide)
chain: GGGRWCYFWWITICELGGGSGGSGG
notes: pIX phagemid display, library S17; also called PP178; not shown: M13 phage coat protein pIX (MSVL...)
B16: phage clone P177 (SEQ ID NO: 52) (peptide)
chain: GGGDACTMVFLWCSLGGGSGGSGG
notes: pIX phagemid display, library S16; also called PP177; not shown: M13 phage coat protein pIX (MSVL...)
B17: phage clone displaying SEQ ID NO: 30 (S18 hit) (peptide)
chain: GGGAYCSFVAGDLVCQVGGGSGGSGG
notes: pIX phagemid display, library S18; not shown: M13 phage coat protein pIX (MSVL...)
B18: phage clone displaying SEQ ID NO: 34 (S18 hit) (peptide)
chain: GGGYDCVSFGAVAYCPQGGGSGGSGG
notes: as for B17
B19: phage clone displaying SEQ ID NO: 23 (S18 hit) (peptide)
chain: GGGAGCIAFVDVVYCARGGGSGGSGG
notes: as for B17
B20: phage clone displaying SEQ ID NO: 33 (S18 hit) (peptide)
chain: GGGTDCVRFGETIYCIVGGGSGGSGG
notes: as for B17
B21: phage clone P173 (SEQ ID NO: 31) (peptide)
chain: GGGTDCVIFGLETYCLRGGGSGGSGG
notes: pIX phagemid display, library S18; also called PP173; not shown: M13 phage coat protein pIX (MSVL...)
B22: phage clone displaying SEQ ID NO: 26 (S18 hit) (peptide)
chain: GGGKHCILFEKTVYCAKGGGSGGSGG
notes: as for B17
B23: phage clone displaying SEQ ID NO: 29 (S18 hit) (peptide)
chain: GGGRACITFGKVVYCEVGGGSGGSGG
notes: as for B17
B24: phage clone displaying SEQ ID NO: 35 (S18 hit) (peptide)
chain: GGGRGCVVFGDNIYCIVGGGSGGSGG
notes: as for B17
B25: phage clone displaying SEQ ID NO: 28 (S18 hit) (peptide)
chain: GGGTDCIRFGVLWYCLVGGGSGGSGG
notes: as for B17
B26: phage clone displaying SEQ ID NO: 32 (S18 hit) (peptide)
chain: GGGSDCVLFGSKLFCSAGGGSGGSGG
notes: as for B17
B27: phage clone displaying SEQ ID NO: 25 (S18 hit) (peptide)
chain: GGGRDCIIFDKTVYCVIGGGSGGSGG
notes: as for B17
B28: phage clone displaying SEQ ID NO: 24 (S18 hit) (peptide)
chain: GGGAKCIAFGNSVYCLNGGGSGGSGG
notes: as for B17
B29: phage clone displaying SEQ ID NO: 27 (S18 hit) (peptide)
chain: GGGDSCIQFANLLYCAIGGGSGGSGG
notes: as for B17
B30: phage clone displaying SEQ ID NO: 10 (S15 hit) (peptide)
chain: GGGYRLFVDESIFFCTRLGGGSGGSGG
notes: pIX phagemid display, library S15; not shown: M13 phage coat protein pIX (MSVL...)
B31: phage clone displaying SEQ ID NO: 16 (S15 hit) (peptide)
chain: GGGSTITSLPTLQCWPILGGGSGGSGG
notes: as for B30
B32: phage clone displaying SEQ ID NO: 15 (S15 hit) (peptide)
chain: GGGNWFSLPTLLCFPLNPGGGSGGSGG
notes: as for B30
B33: phage clone displaying SEQ ID NO: 14 (S15 hit) (peptide)
chain: GGGHVSLQSLPELICVVSGGGSGGSGG
notes: as for B30
B34: phage clone displaying SEQ ID NO: 12 (S15 hit) (peptide)
chain: GGGVSGILPILVCHPAATGGGSGGSGG
notes: as for B30
B35: phage clone displaying SEQ ID NO: 11 (S15 hit) (peptide)
chain: GGGELGLPTLLCWPTDTLGGGSGGSGG
notes: as for B30
B36: phage clone displaying SEQ ID NO: 20 (S15 hit) (peptide)
chain: GGGTVFTLPELVCVVAGTGGGSGGSGG
notes: as for B30
B37: phage clone P175 (SEQ ID NO: 13) (peptide)
chain: GGGLPDDSLPELICKVRGGGGSGGSGG
notes: pIX phagemid display, library S15; also called PP175; not shown: M13 phage coat protein pIX (MSVL...)
B38: phage clone displaying SEQ ID NO: 18 (S15 hit) (peptide)
chain: GGGPIFSSLPVLYCTSQLGGGSGGSGG
notes: as for B30
B39: phage clone displaying SEQ ID NO: 17 (S15 hit) (peptide)
chain: GGGPIDDESLPVLYCVTSGGGSGGSGG
notes: as for B30
B40: phage clone displaying SEQ ID NO: 21 (S15 hit) (peptide)
chain: GGGLPDLICAVDSGTSGAGGGSGGSGG
notes: as for B30
B41: phage clone displaying SEQ ID NO: 19 (S15 hit) (peptide)
chain: GGGGADTLPDLLCWESSLGGGSGGSGG
notes: as for B30
B42: P190-DOXIL (peptide)
peptide: DPCTWEVWGRECLQ
modifications: disulfide 3-12 (inferred); not fully specified (N-terminus); also: inserted into doxorubicin-loaded liposomes
B43: phage displaying P190 on pIX (SEQ ID NO: 55) (peptide)
chain: GGGDPCTWEVWGRECLQGGGSGGSGG
notes: pIX phagemid display, library S18; on average one peptide per particle; also called PHPEP190; pIX-190; not shown: M13 phage coat protein pIX (MSVL...)

biological target: T1, sEGFR-MMB (dimeric sEGFR mimetibody) (human); experiment: phage ELISA on coated sEGFR-MMB, chemiluminescence (background typically <200 units)
T1 construct: Disulfide-linked homodimer: QIQ, sEGFR, flexible linker, J segment, human IgG1 hinge, CH2, CH3; also called sEGFR-Fc; dimeric EGFR
T1 sequence (chain, as listed by the source limits assumed): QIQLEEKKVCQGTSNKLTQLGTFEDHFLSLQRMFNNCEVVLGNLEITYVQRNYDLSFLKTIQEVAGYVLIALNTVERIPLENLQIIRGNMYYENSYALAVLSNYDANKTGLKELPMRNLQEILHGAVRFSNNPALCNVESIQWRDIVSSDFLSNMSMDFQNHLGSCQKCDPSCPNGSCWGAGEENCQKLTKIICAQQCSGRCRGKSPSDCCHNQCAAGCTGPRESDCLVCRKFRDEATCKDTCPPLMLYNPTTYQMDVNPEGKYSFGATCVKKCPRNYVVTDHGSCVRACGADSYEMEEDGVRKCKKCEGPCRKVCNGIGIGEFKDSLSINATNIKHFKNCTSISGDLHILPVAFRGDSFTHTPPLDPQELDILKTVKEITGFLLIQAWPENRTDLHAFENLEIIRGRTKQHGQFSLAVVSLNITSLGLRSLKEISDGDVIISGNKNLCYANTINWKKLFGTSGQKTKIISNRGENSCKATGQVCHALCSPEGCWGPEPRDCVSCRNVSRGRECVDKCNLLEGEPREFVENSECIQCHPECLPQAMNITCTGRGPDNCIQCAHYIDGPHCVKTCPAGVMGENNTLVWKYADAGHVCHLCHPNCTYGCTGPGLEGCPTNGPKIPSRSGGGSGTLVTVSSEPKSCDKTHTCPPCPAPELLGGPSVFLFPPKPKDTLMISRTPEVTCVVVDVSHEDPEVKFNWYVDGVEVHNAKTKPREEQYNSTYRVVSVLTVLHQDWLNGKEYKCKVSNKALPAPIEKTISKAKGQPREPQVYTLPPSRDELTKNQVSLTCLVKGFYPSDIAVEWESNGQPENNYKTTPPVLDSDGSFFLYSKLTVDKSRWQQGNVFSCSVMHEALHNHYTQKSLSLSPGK
Method: (§1) The protein solution was removed and wells were rinsed twice with Tris-Buffered Saline containing 0.05% Tween-20 (TBS-T) using a plate washer (Embla). The wells were blocked with Starting Block in TBS for 1 hr at room temperature and rinsed twice with TBS-T. An equal volume of phage supernatant and Starting Block in TBS were incubated in the wells for 1 hr at room temperature, and the wells were rinsed five times with TBS-T. Anti-M13/horseradish peroxidase conjugate (Amersham), diluted 1:5000 in Starting Block in TBS, was added into the wells and incubated for 1 hour at room temperature, and then the wells were rinsed five times with TBS-T. Finally, chemiluminescent peroxidase substrate (Roche) was added to the wells, and chemiluminescence was measured on a Tecan plate reader.

| Binder | ELISA [units] |
| --- | --- |
| B1 | 5420 |
| B2 | 6620 |
| B3 | 4770 |
| B4 | 37400 |
| B5 | 4800 |
| B6 | 9540 |
| B7 | 4510 |

biological target: T2, human EGFR on tumor cells (human, UniProt P00533 25-1210); experiment: flow cytometry on A431 cells, without EGF
T2 construct: whole, on cells; also called EGFR on A431 cells; EGFR on MDA-MB-468 cells

| Binder | fold increase in FACS signal [fold] |
| --- | --- |
| B8 | ~10 |

biological target: T3, Streptavidin; experiment: phage ELISA on streptavidin-coated wells without receptor [panel C]
T3 construct: also called Streptavidin alone; SA
Method: as §1
(§2) Confirmatory Phage ELISA. […] The binding reaction was incubated for 1 hr at room temperature, and then bound phage were detected with anti-M13/HRP as above. For ELISAs with biotinylated receptors, streptavidin at 5 μg/ml was coated in the wells overnight at 4° C. […] The wells were rinsed with TBS-T and then blocked with Starting Block. Bound phage were washed and detected with anti-M13/HRP as described above.

| Binder | binding result |
| --- | --- |
| B4 | no binding |

biological target: T1, sEGFR-MMB (dimeric sEGFR mimetibody); experiment: phage ELISA on coated sEGFR-MMB, chemiluminescence (background typically <200 units); remark: another data set of the same source
Method: as §1

| Binder | ELISA [units] |
| --- | --- |
| B9 | 1290 |
| B10 | 8810 |
| B11 | 3350 |
| B12 | 2580 |
| B13 | 14000 |

biological target: T1, sEGFR-MMB (dimeric sEGFR mimetibody); experiment: as above; remark: another data set of the same source
Method: as §1

| Binder | ELISA [units] |
| --- | --- |
| B14 | 34600 |
| B15 | 7910 |
| B16 | 8660 |

biological target: T1, sEGFR-MMB (dimeric sEGFR mimetibody); experiment: as above; remark: another data set of the same source
Method: as §1

| Binder | ELISA [units] |
| --- | --- |
| B17 | 19800 |
| B18 | 3200 |
| B19 | 6380 |
| B20 | 13300 |
| B21 | 37900 |
| B22 | 9110 |
| B23 | 30700 |
| B24 | 22000 |
| B25 | 4750 |
| B26 | 35300 |
| B27 | 17100 |
| B28 | 31500 |
| B29 | 53200 |

biological target: T1, sEGFR-MMB (dimeric sEGFR mimetibody); experiment: as above; remark: another data set of the same source
Method: as §1

| Binder | ELISA [units] |
| --- | --- |
| B30 | 3080 |
| B31 | 13300 |
| B32 | 3670 |
| B33 | 1360 |
| B34 | 1110 |
| B35 | 9380 |
| B36 | 1520 |
| B37 | 6790 |
| B38 | 1420 |
| B39 | 1780 |
| B40 | 1160 |
| B41 | 5720 |

biological target: T2, human EGFR on tumor cells; experiment: cell-based or functional assay

| Binder | IC50 D4, cell killing of MDA-MB-468 cells (1 h treatment, 4 days) [µg/mL] | IC50 D6, cell killing of MDA-MB-468 cells (1 h treatment, 6 days) [µg/mL] |
| --- | --- | --- |
| B42 | 120 | 35 |

biological target: T4, Control-MMB (CNTO 360) (Homo sapiens (Human), UniProt P0DOX5 111-449 = IgG part); experiment: phage ELISA, Control-MMB coated at 5 ug/ml
T4 construct: MMB scaffold without a peptide; described as human IgG1 heavy chain dimer lacking the variable and most of the CH1 domains; also called blank mimetibody scaffold protein
Method: The plates were held overnight at room temperature, washed twice with TBST (0.5M Tris Base, 9% NaCl, 0.05% tween, pH 7.6), and loaded with 200 μL per well of Starting Block (Pierce). […] The plates were held at room temperature for 1.5 hours for blocking. Plates were then washed twice with TBST and phage were added. The phage solutions were crude phage supernatant from overnight cultures diluted four-fold with Starting Block. After a one-hour incubation, the plates were washed thrice with TBST and 100 μL of a 1:5000 dilution of phage binding antibody conjugate (α-M13-HRP) was added to the wells. […] After a one-hour incubation the plates were washed five times with TBST, 100 μL of POD (BM Chemiluminescence ELISA substrate; Roche Applied Science) was added, and chemiluminescene recorded.

| Binder | binding result |
| --- | --- |
| B43 | no binding |

biological target: T4, Control-MMB (CNTO 360); experiment: phage ELISA on coated Control-MMB in the presence of EGF [panel B]
Method: as §1, §2

| Binder | binding result |
| --- | --- |
| B4 | no binding |
